Patent US20250304677A1 (VIB VZW, published 2025)

Assays:
[1] = target: T1, human folate receptor alpha (hFRα), recombinant protein (human, UniProt P15328 25-233); test: ELISA, periplasmic extract
T1 construct: Bought recombinant proteins (His-tagged, or biotinylated via Avi-tag, e.g. AcroBiosystems FO1-H82E2, F01-H52H1); also called hFOLR1; huFOLR1
Text: (§1) From the lymphocytes of each llama a separate VHH library was constructed to select and screen for the presence of antigen-specific VHHs. To this end, total RNA from peripheral blood lymphocytes was used as template for first strand cDNA synthesis with an oligo ^{∘}dT) primer. Using this cDNA, the VHH encoding sequences were amplified by PCR, digested with PstI and NotI, cloned into the PstI and NotI sites of the phagemid vector pMECS and transformed into E. coli to generate VHH libraries. To enrich these libraries for FRα ^{∘}or FOLR1, as used interchangeably herein)-specific VHHs, a combinatorial panning approach on recombinant human and mouse FOLR1 was used followed by random selection and screening of clones by ELISA for the presence of antigen-specific VHHs in their periplasmic extracts ^{∘}PEs). In order to gauge the cross-reactivity for human and mouse FOLR1, each clone was tested on both antigens.
(§2) After panning of core76/77 on human and mouse folate receptor alpha ^{∘}FRα), […] were randomly selected from the second and third rounds and analyzed by ELISA on both human and mouse FRα for the presence of FRα-specific VHHs in their periplasmic extracts ^{∘}PE). This led to the identification of 98 hits. For these 98 hits, the off-rate ^{∘}koff) in the PE was determined by biolayer interferometry ^{∘}BLI) on both mouse and human FRα that was directly immobilized onto AR2G biosensors. The off-rates were calculated using a 1:1 binding model. […] Abbreviations: SE: standard error.

[2] = target: T2, mouse folate receptor alpha (mFRα), recombinant protein (mouse, UniProt P35846 25-232); test: ELISA, periplasmic extract
T2 construct: Bought recombinant proteins (e.g. biotinylated, Acro Biosystems FO1-M82E9); also called mFOLR1; Ms FOLR1
T2 sequence (P35846 25-232 limits assumed): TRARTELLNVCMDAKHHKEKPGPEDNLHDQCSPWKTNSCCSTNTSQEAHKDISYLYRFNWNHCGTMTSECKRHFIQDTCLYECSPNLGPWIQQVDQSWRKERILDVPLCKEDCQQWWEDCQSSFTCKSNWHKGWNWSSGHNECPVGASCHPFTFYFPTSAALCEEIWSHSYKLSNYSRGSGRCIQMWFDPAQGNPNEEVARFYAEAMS
Text: as §1, §2

[3] = target: T2, mouse folate receptor alpha (mFRα), …; test: BLI tandem binning on mouse FRα; competitor (1st association) 2HFO19
Text: (§3) VHHs that share high sequence identity in the CDR3 region, a VHH family, are derived from the same B-cell lineage and diverged from each other due to somatic hypermutation or affinity maturation. Typically, VHHs from the same family recognize the same epitope on the target, but may differ in other characteristics ^{∘}De Genst et al 2006 PNAS 103:4586-4591; De Gents et al 2005 J Biol Chem 280:14114-14121). To study whether the VHHs from the different families bound different epitopes, epitope binning was performed using a tandem binding approach in BLI. One VHH from each family was allowed to bind to mouse FRα on the biosensor, followed by binding of the second VHH ^{∘}Table 4).
(§4) Competition between VHHs from different complementarity determining region ^{∘}CDR) 3 families was assessed in a tandem binding assay using biolayer interferometry ^{∘}BLI). Streptavidin biosensors were loaded with biotinylated mouse FRα ^{∘}Acro Biosystems, Cat.nr. FO1-M82E9), followed by binding of anti-FRα VHHs ^{∘}VHH in first association). The biosensors were then transferred to a solution containing a second VHH mixed 1:1 with the first VHH ^{∘}VHH in second association). Using the FortéBio Data Analysis Software the absolute additional binding signal for the second association on top of the first association was calculated. The data were normalized per VHH in first association using the following formula: ^{∘}signal-self)/^{∘}maximum-self) with self being the value of the VHH in first association in combination with the same VHH in second association.

[4] = target: T2, mouse folate receptor alpha (mFRα), …; test: BLI tandem binning on mouse FRα; competitor (1st association) 2HFO42
Text: as §3, §4

[5] = target: T2, mouse folate receptor alpha (mFRα), …; test: BLI tandem binning on mouse FRα; competitor (1st association) 3MFR60
Text: as §3, §4

human FRα Q141R = target: T3, human FRα Q141R (human, UniProt P15328 25-234); test: flow cytometry on transiently transfected HEK293T cells, mouse anti-His then anti-mouse-PE (B575-A)
T3 construct: The entry is the mutant itself
T3 sequence (P15328 25-234 Q141R limits assumed): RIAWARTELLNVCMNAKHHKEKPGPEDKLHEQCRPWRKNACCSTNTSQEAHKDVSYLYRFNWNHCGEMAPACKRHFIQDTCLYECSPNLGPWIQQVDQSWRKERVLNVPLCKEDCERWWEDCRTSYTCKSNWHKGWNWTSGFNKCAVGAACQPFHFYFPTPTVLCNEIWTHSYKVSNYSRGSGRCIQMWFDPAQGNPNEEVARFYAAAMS
Text: (§5) FIGS. 2A-2C illustrates the epitope mapping of anti-FOLR1 VHHs on human FOLR1/2 chimeras. ^{∘}FIG. 2A) To narrow down the epitope of the anti-folate receptor alpha ^{∘}FOLR1) VHHs, chimeric constructs were generated by exchanging a sequence block in human FOLR1 ^{∘}hFOLR1) by the corresponding human folate receptor beta ^{∘}hFOLR2) sequence, since the VHHs are able to bind both hFOLR1 and mouse FOLR1 ^{∘}mFOLR1; SEQ ID No.97), but not hFOLR2. These regions are indicated by the green arrows. Chimera 1 SEQ ID No. 67) and 7 ^{∘}Ch7; SEQ ID No. 73) also contain an additional residue change at a separate location. […] HEK293T cells were transfected with hFOLR1, hFOLR2, one of the hFOLR1/2 chimeric constructs ^{∘}FIG. 2B) or single residue mutants ^{∘}FIG. 2C). Binding of VHHs 2HFO19, 2HFO42, 3MFR60, and a mouse anti-FOLR1 monoclonal antibody ^{∘}mAb) was detected using a mouse anti-His tag antibody for the VHHs followed by an anti-mouse-phycoerythrin antibody. All VHHs were tested at a concentration of 200 nM and untransfected cells were used as a negative control. The colors used for the VHHs represent the different CDR3 families; blue: family 1, green: family 3, grey: family 10.
(§6) To further narrow down which specific residues might play a role, single residues of human FRα in the chimera 4 region that are not conserved between FRα and FRβ were mutated to their human FRβ counterpart. While all VHHs retained binding to human FRα E140Q SEQ ID No. 77), R147H ^{∘}SEQ ID No. 79), and Y150H ^{∘}SEQ ID No. 80) ^{∘}data not shown), binding was completely abolished when the Q141R mutation ^{∘}SEQ ID No. 78) was introduced ^{∘}FIG. 2C). To verify the role of this residue in the binding of the VHHs, the R135 residue in human FRβ was replaced by glutamine ^{∘}SEQ ID No. 81) and binding of the VHHs was analyzed. […] In addition to having ^{∘}partially) overlapping epitopes, the VHHs thus all require residue Q141 for binding.

[6] = target: T4, human folate receptor beta (FRβ) (human, UniProt P14207 17-230, limits assumed); test: as above
T4 construct: also called hFOLR2; human FOLR2
T4 sequence (P14207 17-230 limits assumed): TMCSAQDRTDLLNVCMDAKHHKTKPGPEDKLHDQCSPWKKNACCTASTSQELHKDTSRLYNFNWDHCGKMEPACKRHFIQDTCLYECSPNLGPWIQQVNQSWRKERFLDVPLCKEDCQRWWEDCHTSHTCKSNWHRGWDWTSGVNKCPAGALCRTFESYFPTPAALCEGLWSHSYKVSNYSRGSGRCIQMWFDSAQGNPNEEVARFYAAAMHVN
Text: as §5, §6

T1 sequence (P15328 25-233 limits assumed): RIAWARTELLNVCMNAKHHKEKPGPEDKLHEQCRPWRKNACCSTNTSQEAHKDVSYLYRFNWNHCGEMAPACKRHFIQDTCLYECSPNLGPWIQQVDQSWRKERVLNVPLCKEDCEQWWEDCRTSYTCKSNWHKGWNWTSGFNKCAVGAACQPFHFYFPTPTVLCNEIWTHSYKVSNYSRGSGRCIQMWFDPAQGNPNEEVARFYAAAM

| PE-ELISA (ratio to uncoated well) [1] | PE-ELISA (ratio to uncoated well) [2] | normalized additional binding in 2nd association [3] [%] | normalized additional binding in 2nd association [4] [%] | normalized additional binding in 2nd association [5] [%] | binding result (human FRα Q141R) | binding result [6] | Binder |
| --- | --- | --- | --- | --- | --- | --- | --- |
| 13.8 | 14.2 | 0 | 12 | -7 | no binding (tested: 200 nM) | no binding (tested: 200 nM) | VHH 2HFO19 (family 1) (VHH, also called Nb19) VHH: QVQLQESGGGLVQPGGSLRVSCAASGFPFSTVYMSWVRQAPGKGLEWVSGINNDGGVIDYADSVKGRFTISRDNAKNTLYLQLNSLKPEDTALYFCARGRSFVATLSSSLRGQGTQVTVSS |
| 11.7 | 12.2 | 1 | 0 | -2 | no binding (tested: 200 nM) | no binding (tested: 200 nM) | VHH 2HFO42 (family 3) (VHH, also called 2HF042; Nb42) VHH: QVQLQESGGGLVQAGGSLRLSCAASGSGFSGMIMGWYRQVPGKQRELVATVTSHGTTNYADSVKGRFTISRDNAKNTVLLQMNSLKPEDTAVYYCNAHFPGIYWGKGTQVTVSS |
| 4.8 | 4.9 | 6 | 34 | 0 | no binding (tested: 200 nM) | no binding (tested: 200 nM) | VHH 3MFR60 (family 10) (VHH) VHH: QVQLQESGGGLVQAGGSLRVSCAASGIIFSMNGMGWFRQAPGKQRELVASITSGGSTKYADSVKGRFTISRDNAKNTVYLQMNSLKPEDTAVYYCNIQFGSRWSTYWGQGTQVTVSS |
